The results in this text go back to the supplement of paper PMC5998384.

Series [1] has as its system HeLa Kyoto. Kind of series: solubility in G1/S (NP-40 vs SDS abundance) (log2 ratio); higher = more soluble. Particulars: cell cycle stage: G1/S.
The subject of series [2] is HeLa Kyoto. Kind of series: melting temperature (median over replicates), in situ; higher = more thermally stable.
The test system of series [3] is HeLa Kyoto. Kind of series: solubility change mitosis vs G1/S (difference of NP-40 vs SDS log2 ratios) (log2 ratio difference); higher = more soluble in mitosis.
In series [4] the test system is HeLa Kyoto. Briefly: thermal stability score vs G1/S (z-score of summed log2 fold changes over temperatures); higher = more thermally stable than in G1/S.
Setting [5] is: cell cycle stage: early G1 (4.5 h after nocodazole release).
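For melting temperature (median over replicates), in situ in this document: HeLa Kyoto cells synchronized by double thymidine or nocodazole block, proteins quantified by TMT10plex mass spectrometry, three independent biological replicates.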
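For solubility change mitosis vs G1/S (difference of NP-40 vs SDS log2 ratios) in this document: synchronized HeLa Kyoto cells (double thymidine block for G1/S, nocodazole release for mitosis), protein amounts in NP-40 versus SDS lysates quantified by mass spectrometry, three biological replicates.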
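For solubility in G1/S (NP-40 vs SDS abundance) in this document: HeLa Kyoto cells arrested at G1/S by double thymidine block, proteins quantified by TMT10plex mass spectrometry in mild NP-40 versus SDS extracts, three biological replicates.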
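For thermal stability score vs G1/S (z-score of summed log2 fold changes over temperatures) in this document: synchronized HeLa Kyoto cells, proteins quantified by TMT10plex mass spectrometry, three biological replicates, mitosis taken 0.5 h after nocodazole release, G1/S directly after double thymidine block.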

“MEEEGLECPNSSSEKRYFPESLDSSDGDEEEVLACEDLELNPFDGLPYSSRYYKLLKEREDLPIWKEKYSFMENLLQNQIVIVSGDAKCGKSAQVPQWCAEYCLSIHYQHGGVICTQVHKQTVVQLALRVADEMDVNIGHEVGYVIPFENCCTNETILRYCTDDMLQREMMSNPFLGSYGVIILDDIHERSIATDVLLGLLKDVLLARPELKLIINSSPHLISKLNSYYGNVPVIEVKNKHPVEVVYLSEAQKDSFESILRLIFEIHHSGEKGDIVVFLACEQDIEKVCETVYQGSNLNPDLGELVVVPLYPKEKCSLFKPLDETEKRCQVYQRRVVLTTSSGEFLIWSNSVRFVIDVGVERRKVYNPRIRANSLVMQPISQSQAEIRKQILGSSSSGKFFCLYTEEFASKDMTPLKPAEMQEANLTSMVLFMKRIDIAGLGHCDFMNRPAPESLMQALEDLDYLAALDNDGNLSEFGIIMSEFPLDPQLSKSILASCEFDCVDEVLTIAAMVTAPNCFSHVPHGAEEAALTCWKTFLHPEGDHFTLISIYKAYQDTTLNSSSEYCVEKWCRDYFLNCSALRMADVIRAELLEIIKRIELPYAEPAFGSKENTLNIKKALLSGYFMQIARDVDGSGNYLMLTHKQVAQLHPLSGYSITKKMPEWVLFHKFSISENNYIRITSEISPELFMQLVPQYYFSNLPPSESKDILQQVVDHLSPVSTMNKEQQMCETCPETEQRCTLQ [DHX32]”: the “solubility in G1/S (log2)” value in the series with HeLa Kyoto [1] was -0.155. Further, the melting temperature in the series on HeLa Kyoto [2] (cell cycle stage: G1/S) came out at 49.4 °C; in the series on HeLa Kyoto [2] (cell cycle stage: mitosis) it was 50 °C. Besides, in the series on HeLa Kyoto [3], the “solubility change mitosis (log2)” value was -0.152. Further, the thermal stability score with HeLa Kyoto [4] (setting [5]) is -0.0722; in the series with HeLa Kyoto [4] (cell cycle stage: mitosis), 0.258.
For the sequence “MEEGGGGVRSLVPGGPVLLVLCGLLEASGGGRALPQLSDDIPFRVNWPGTEFSLPTTGVLYKEDNYVIMTTAHKEKYKCILPLVTSGDEEEEKDYKGPNPRELLEPLFKQSSCSYRIESYWTYEVCHGKHIRQYHEEKETGQKINIHEYYLGNMLAKNLLFEKEREAEEKEKSNEIPTKNIEGQMTPYYPVGMGNGTPCSLKQNRPRSSTVMYICHPESKHEILSVAEVTTCEYEVVILTPLLCSHPKYRFRASPVNDIFCQSLPGSPFKPLTLRQLEQQEEILRVPFRRNKEEDLQSTKEERFPAIHKSIAIGSQPVLTVGTTHISKLTDDQLIKEFLSGSYCFRGGVGWWKYEFCYGKHVHQYHEDKDSGKTSVVVGTWNQEEHIEWAKKNTARAYHLQDDGTQTVRMVSHFYGNGDICDITDKPRQVTVKLKCKESDSPHAVTVYMLEPHSCQYILGVESPVICKILDTADENGLLSLPN [ERLEC1]”, the “solubility in G1/S (log2)” value in the series on HeLa Kyoto [1] came to 0.0171. Besides, the results for the melting temperature with HeLa Kyoto [2] (cell cycle stage: G1/S) and in the series on HeLa Kyoto [2] (cell cycle stage: mitosis) were 54.1 °C and 54 °C, respectively. Also, the “solubility change mitosis (log2)” value in the series on HeLa Kyoto [3] was -0.0947. In addition, the thermal stability score in the series on HeLa Kyoto [4] (setting [5]) was determined as 1.6; with HeLa Kyoto [4] (cell cycle stage: mitosis), 0.429.
As for “MEELDGEPTVTLIPGVNSKKNQMYFDWGPGEMLVCETSFNKKEKSEMVPSCPFIYIIRKDVDVYSQILRKLFNESHGIFLGLQRIDEELTGKSRKSQLVRVSKNYRSVIRACMEEMHQVAIAAKDPANGRQFSSQVSILSAMELIWNLCEILFIEVAPAGPLLLHLLDWVRLHVCEVDSLSADVLGSENPSKHDSFWNLVTILVLQGRLDEARQMLSKEADASPASAGICRIMGDLMRTMPILSPGNTQTLTELELKWQHWHEECERYLQDSTFATSPHLESLLKIMLGDEAALLEQKELLSNWYHFLVTRLLYSNPTVKPIDLHYYAQSSLDLFLGGESSPEPLDNILLAAFEFDIHQVIKECSIALSNWWFVAHLTDLLDHCKLLQSHNLYFGSNMREFLLLEYASGLFAHPSLWQLGVDYFDYCPELGRVSLELHIERIPLNTEQKALKVLRICEQRQMTEQVRSICKILAMKAVRNNRLGSALSWSIRAKDAAFATLVSDRFLRDYCERGCFSDLDLIDNLGPAMMLSDRLTFLGKYREFHRMYGEKRFADAASLLLSLMTSRIAPRSFWMTLLTDALPLLEQKQVIFSAEQTYELMRCLEDLTSRRPVHGESDTEQLQDDDIETTKVEMLRLSLARNLARAIIREGSLEGS [NUP85]”, the “solubility in G1/S (log2)” value with HeLa Kyoto [1] was -0.6. For the same sequence, the melting temperature was 52.3 °C in the series with HeLa Kyoto [2] (cell cycle stage: G1/S) and 50.8 °C with HeLa Kyoto [2] (cell cycle stage: mitosis). Besides, in the series with HeLa Kyoto [3], the “solubility change mitosis (log2)” value stood at 0.246. The results for the thermal stability score with HeLa Kyoto [4] (setting [5]) and in the series with HeLa Kyoto [4] (cell cycle stage: mitosis) were -2.34 and -4.7, respectively.
As to “MEESHFNSNPYFWPSIPTVSGQIENTMFINKMKDQLLPEKGCGLAPPHYPTLLTVPASVSLPSGISMDTESKSDQLTPHSQASVTQNITVVPVPSTGLMTAGVSCSQRWRREGSQSRGPGLVITSPSGSLVTTASSAQTFPISAPMIVSALPPGSQALQVVPDLSKKVASTLTEEGGGGGGGGGSVAPKPPRGRKKKRMLESGLPEMNDPYVLSPEDDDDHQKDGKTYRCRMCSLTFYSKSEMQIHSKSHTETKPHKCPHCSKTFANSSYLAQHIRIHSGAKPYSCNFCEKSFRQLSHLQQHTRIHSKMHTETIKPHKCPHCSKTFANTSYLAQHLRIHSGAKPYNCSYCQKAFRQLSHLQQHTRIHTGDRPYKCAHPGCEKAFTQLSNLQSHRRQHNKDKPFKCHNCHRAYTDAASLEVHLSTHTVKHAKVYTCTICSRAYTSETYLMKHMRKHNPPDLQQQVQAAAAAAAVAQAQAQAQAQAQAQAQAQAQAQASQASQQQQQQQQQQQQQQQQPPPHFQSPGAAPQGGGGGDSNPNPPPQCSFDLTPYKTAEHHKDICLTVTTSTIQVEHLASS [ZNF384]”, the “solubility in G1/S (log2)” value in the series with HeLa Kyoto [1] was -0.109. Also, the melting temperature with HeLa Kyoto [2] (cell cycle stage: G1/S) is 51.6 °C; with HeLa Kyoto [2] (cell cycle stage: mitosis) it was 52.4 °C. Also, in the series on HeLa Kyoto [3], the “solubility change mitosis (log2)” value worked out at 0.0582. In addition, the thermal stability score with HeLa Kyoto [4] (setting [5]) was -0.69; in the series with HeLa Kyoto [4] (cell cycle stage: mitosis) it was -1.1.
